The chains are these.
B3: soluble BTN3A1 ectodomain (IgV-IgC), homodimer (ligand)
chain: not shown
notes: C-terminal biotin ligase (AviTag) and His6 tags; Analyte or immobilised ligand in SPR; streptavidin-PE tetramer in flow cytometry; also called BTN3A1 ectodomain homodimer; full-length BTN3A1 ectodomain

The target in assay [1] is B3. The experiment in a line: SPR, soluble monomeric BTN3A1 IgV domain over immobilised BTN3A1 homodimer. (In general: SPR reads the build-up and loss of mass on a sensor chip optically.)
Method: SPR experiments were conducted at 25° C. on a Biacore T200 instrument (GE Healthcare) using 10 mM HEPES-HCl (pH 7.4), 150 mM NaCl, 3 mM EDTA, and 0.05% Tween 20 buffer. Biotinylated BTN ectodomains were immobilized to 1,500-2,000 resonance units (RU) on a Biacore sensor chip SA pre-immobilized with streptavidin. Soluble BTN molecules or G115 γδTCR were two-fold serially diluted and simultaneously injected over test and control surfaces at a rate of 30 μl/min.
For assay [2], the target named is T1, BTN2A1 ectodomain homodimer, disulfide-linked (C-terminal Cys247, acidic or basic leucine zipper) (human, UniProt Q7KYR7 29-248; Q7KYR7 29-248).
T1 construct: Biotinylated and immobilised on a streptavidin chip in SPR; also called immobilized BTN2A1 homodimer; immobilised BTN2A1 ectodomain homodimer; not shown: linker and acidic leucine zipper; linker and basic leucine zipper
T1 sequence 1: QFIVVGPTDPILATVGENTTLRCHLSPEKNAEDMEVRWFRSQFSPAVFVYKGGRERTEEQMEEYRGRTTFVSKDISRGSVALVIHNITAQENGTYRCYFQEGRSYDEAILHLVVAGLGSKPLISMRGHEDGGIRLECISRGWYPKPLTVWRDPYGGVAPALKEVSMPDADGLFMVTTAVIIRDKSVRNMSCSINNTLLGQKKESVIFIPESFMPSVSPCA
T1 sequence 2: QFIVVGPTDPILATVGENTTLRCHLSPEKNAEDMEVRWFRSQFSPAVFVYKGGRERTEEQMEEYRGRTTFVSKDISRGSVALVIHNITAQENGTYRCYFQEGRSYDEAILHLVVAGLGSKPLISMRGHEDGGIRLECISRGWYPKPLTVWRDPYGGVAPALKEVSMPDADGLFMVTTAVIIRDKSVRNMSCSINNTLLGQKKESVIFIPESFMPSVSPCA
The experiment in a line: SPR, equilibrium; BTN2A1 homodimer immobilised, soluble BTN3A1 IgV domain injected.

For assay [3], the target named is B3. The experiment in a line: SPR, equilibrium; BTN3A1 homodimer immobilised, soluble monomeric BTN2A1 ectodomain injected.
Method: (§1) SPR experiments were conducted at 25° C. on a Biacore T200 instrument (GE Healthcare) using 10 mM HEPES-HCl (pH 7.4), 150 mM NaCl, 3 mM EDTA, and 0.05% Tween 20 buffer. Biotinylated BTN ectodomains were immobilized to 1,500-2,000 resonance units (RU) on a Biacore sensor chip SA pre-immobilized with streptavidin. Soluble BTN molecules or G115 γδTCR were two-fold serially diluted and simultaneously injected over test and control surfaces at a rate of 30 μl/min. After subtraction of data from the control flow cell (BTN1A1) and blank injections, interactions were analyzed using Biacore T200 evaluation software (GE Healthcare), Scrubber (Biologic) and Prism version 9 (GraphPad), and equilibrium dissociation constants were derived at equilibrium.
In assay [4] the target is T1, BTN2A1 ectodomain homodimer, …. Put plainly: SPR; BTN2A1 ectodomain homodimer immobilised, soluble BTN2A1 ectodomain injected.
Method: as §1
The target is the same in assay [5]. The experiment in a line: SPR, equilibrium; disulfide-linked BTN2A1 homodimer immobilised, soluble BTN3A1 ectodomain injected.
Method: as §1

What is called Kd is the equilibrium constant for the complex coming apart. A lower Kd goes with higher affinity.

B1: monomeric BTN3A1 IgV domain (ligand)
chain: not shown
Consider B1, for which the binding result in assay [1] is recorded as “no binding (tested: 1,590 µM)”. Besides, the Kd in assay [2] amounted to 1100 µM.

B2: soluble BTN2A1 ectodomain lacking Cys247 (monomeric) (ligand)
chain: QFIVVGPTDPILATVGENTTLRCHLSPEKNAEDMEVRWFRSQFSPAVFVYKGGRERTEEQMEEYRGRTTFVSKDISRGSVALVIHNITAQENGTYRCYFQEGRSYDEAILHLVVAGLGSKPLISMRGHEDGGIRLECISRGWYPKPLTVWRDPYGGVAPALKEVSMPDADGLFMVTTAVIIRDKSVRNMSCSINNTLLGQKKESVIFIPESFMPSVSP
notes: C-terminal biotin ligase (AviTag) and His6 tags; Used as SPR analyte and in crystals; also called monomeric BTN2A1 ectodomain; full-length BTN2A1 ectodomain
As for B2, the dissociation constant (Kd) in assay [3] was ~1800 µM. The binding result in assay [4] is listed as “no binding”. In the case of B3, the Kd in assay [5] was found to be 500 µM.

These data come from patent US20250179144A1 (UNIVERSITY OF MELBOURNE, published 2025).
